Results taken from US20240209044.

Assays:
[1] = tested on: ZAP, zeta activating peptide, the PKCzeta uORF-encoded peptide
[2] = tested on: T1, ZIP, zeta inhibitory peptide, the pseudo-substrate peptide of the PKCzeta regulatory domain
T1 sequence: SIYRRGARRWRKL

| Substance | phosphorylation of MBP by PKC isoforms (32P-γATP in vitro kinase assay) [1] | kinase activity (phosphorylation of MBP, 32P-γ-ATP in vitro kinase assay, dose series of peptide) [1] | kinase activity (phosphorylation of MBP, 32P-γ-ATP in vitro kinase assay, dose series of peptide) [2] |
| --- | --- | --- | --- |
| PKCdelta, HA-tagged, immunoprecipitated from HEK293T lysate | enhanced the phosphorylation of PKC isoforms of the novel PKC sub-family of PKCzeta, PKCdelta and PKCepsilon | – | – |
| PKCgamma, HA-tagged, immunoprecipitated from HEK293T lysate | the peptide had no effect on the phosphorylation of MBP by the PKC isoforms PKCeta (PKCη), PKCtheta (PKCθ), PKCgamma (PKCγ), and PKCalpha (PKCα) | – | – |
| PKMzeta, truncated version of PKCzeta containing only the kinase domain | – | the ZAP peptide activates the kinase activity of both PKCzeta and PKMzeta | the known PS ZIP peptide inhibits their activity |
